From article PMC10397247

Assays:
Test in all cases: two-hybrid library CCmax;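 further: natural log of median RNA to DNA barcode read ratio; higher means stronger binding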
4H2611-AA = biological target: T1, 4H2611-AA
T1 chain: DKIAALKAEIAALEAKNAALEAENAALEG

4H2620-AA = biological target: T2, 4H2620-AA; conditions: mean of both orientations
T2 chain: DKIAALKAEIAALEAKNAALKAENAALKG

4H2648-AA = biological target: T3, 4H2648-AA; conditions: mean of both orientations
T3 chain: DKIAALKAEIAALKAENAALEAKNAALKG

4H2774-AA = biological target: T4, 4H2774-AA; conditions: mean of both orientations
T4 chain: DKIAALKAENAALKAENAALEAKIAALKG

4H2907-AA = biological target: T5, 4H2907-AA; conditions: mean of both orientations
T5 chain: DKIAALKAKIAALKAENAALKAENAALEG

4H3001-AA = biological target: T6, 4H3001-AA; conditions: mean of both orientations
T6 chain: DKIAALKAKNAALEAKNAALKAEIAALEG

4H3056-AA = biological target: T7, 4H3056-AA; conditions: mean of both orientations
T7 chain: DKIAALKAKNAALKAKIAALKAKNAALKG

4H3133-AA = biological target: T8, 4H3133-AA; conditions: mean of both orientations
T8 chain: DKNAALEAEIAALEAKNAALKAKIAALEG

4H3162-AA = biological target: T9, 4H3162-AA; conditions: mean of both orientations
T9 chain: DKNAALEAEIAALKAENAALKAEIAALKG

4H32-AA = biological target: T10, 4H32-AA; conditions: mean of both orientations
T10 chain: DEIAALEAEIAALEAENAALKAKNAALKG

4H3340-AA = biological target: T11, 4H3340-AA; conditions: mean of both orientations
T11 chain: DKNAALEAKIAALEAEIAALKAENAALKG

4H3378-AA = biological target: T12, 4H3378-AA; conditions: mean of both orientations
T12 chain: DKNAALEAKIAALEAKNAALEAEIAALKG

4H3381-AA = biological target: T13, 4H3381-AA; conditions: mean of both orientations
T13 chain: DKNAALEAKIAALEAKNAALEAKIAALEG

4H340-AA = biological target: T14, 4H340-AA; conditions: mean of both orientations
T14 chain: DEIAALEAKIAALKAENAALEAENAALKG

4H3413-AA = biological target: T15, 4H3413-AA; conditions: mean of both orientations
T15 chain: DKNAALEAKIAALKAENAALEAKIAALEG

4H347-AA = biological target: T16, 4H347-AA; conditions: mean of both orientations
T16 chain: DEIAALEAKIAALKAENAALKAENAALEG

4H3493-AA = biological target: T17, 4H3493-AA; conditions: mean of both orientations
T17 chain: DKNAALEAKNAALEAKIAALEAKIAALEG

4H3588-AA = biological target: T18, 4H3588-AA; conditions: mean of both orientations
T18 chain: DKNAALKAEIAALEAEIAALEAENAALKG

4H3606-AA = biological target: T19, 4H3606-AA; conditions: mean of both orientations
T19 chain: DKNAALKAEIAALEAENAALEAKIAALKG

4H3631-AA = biological target: T20, 4H3631-AA; conditions: mean of both orientations
T20 chain: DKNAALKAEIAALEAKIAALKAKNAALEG

4H3697-AA = biological target: T21, 4H3697-AA; conditions: mean of both orientations
T21 chain: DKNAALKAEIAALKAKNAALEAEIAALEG

4H3718-AA = biological target: T22, 4H3718-AA; conditions: mean of both orientations
T22 chain: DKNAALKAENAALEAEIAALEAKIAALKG

4H376-AA = biological target: T23, 4H376-AA; conditions: mean of both orientations
T23 chain: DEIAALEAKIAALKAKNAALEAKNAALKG

4H384-AA = biological target: T24, 4H384-AA; conditions: mean of both orientations
T24 chain: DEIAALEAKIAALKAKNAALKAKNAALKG

4H3865-AA = biological target: T25, 4H3865-AA
T25 chain: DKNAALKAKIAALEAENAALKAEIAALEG

4H406-AA = biological target: T26, 4H406-AA; conditions: mean of both orientations
T26 chain: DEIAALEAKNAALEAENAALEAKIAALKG

4H688-AA = biological target: T27, 4H688-AA; conditions: mean of both orientations
T27 chain: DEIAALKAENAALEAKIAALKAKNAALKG

4H697-AA = biological target: T28, 4H697-AA
T28 chain: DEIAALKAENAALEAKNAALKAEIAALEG

4H963-AA = biological target: T29, 4H963-AA; conditions: mean of both orientations
T29 chain: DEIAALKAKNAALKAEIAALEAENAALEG

4H982-AA = biological target: T30, 4H982-AA; conditions: mean of both orientations
T30 chain: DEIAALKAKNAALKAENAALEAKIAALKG

DKIAALKAEIAALEAKNAALEAENAALEG [4H2611-AA] showed an interaction score (4H2611-AA) of -1.29, an interaction score (4H2620-AA) of 0.167 and an interaction score (4H2648-AA) of 1.2. It also gave an interaction score (4H2774-AA) of -1.54, an interaction score (4H2907-AA) of -1.28 and an interaction score (4H3001-AA) of -1.69. The interaction score (4H3056-AA) was -1.57, the interaction score (4H3133-AA) was -1.77 and the interaction score (4H3162-AA) was -1.57. It also gave an interaction score (4H32-AA) of 1.56, an interaction score (4H3340-AA) of -1.49 and an interaction score (4H3378-AA) of -2.55. For the same binder, the interaction score (4H3381-AA) was -1.73, the interaction score (4H340-AA) was 1.81 and the interaction score (4H3413-AA) was -1.32. The interaction score (4H347-AA) was -0.637, the interaction score (4H3493-AA) was -1.87 and the interaction score (4H3588-AA) was -1.55. The interaction score (4H3606-AA) was -1.56, the interaction score (4H3631-AA) was -0.311 and the interaction score (4H3697-AA) was -2.02. For the same binder, the interaction score (4H3718-AA) was -0.987, the interaction score (4H376-AA) was 1.87 and the interaction score (4H384-AA) was 2.04. For the same binder, the interaction score (4H3865-AA) was -1.39, the interaction score (4H406-AA) was -1.29 and the interaction score (4H688-AA) was -1.66. For the same binder, the interaction score (4H697-AA) was -2.17, the interaction score (4H963-AA) was -1.66 and the interaction score (4H982-AA) was -1.45.
